Source: patent US20030148956A1 (PROCTER AND GAMBLE, published 2003)
Ends that are not written are not given here.

T1: CRF2R
T1 sequence (Q13324 whole entry, species assumed, looked up): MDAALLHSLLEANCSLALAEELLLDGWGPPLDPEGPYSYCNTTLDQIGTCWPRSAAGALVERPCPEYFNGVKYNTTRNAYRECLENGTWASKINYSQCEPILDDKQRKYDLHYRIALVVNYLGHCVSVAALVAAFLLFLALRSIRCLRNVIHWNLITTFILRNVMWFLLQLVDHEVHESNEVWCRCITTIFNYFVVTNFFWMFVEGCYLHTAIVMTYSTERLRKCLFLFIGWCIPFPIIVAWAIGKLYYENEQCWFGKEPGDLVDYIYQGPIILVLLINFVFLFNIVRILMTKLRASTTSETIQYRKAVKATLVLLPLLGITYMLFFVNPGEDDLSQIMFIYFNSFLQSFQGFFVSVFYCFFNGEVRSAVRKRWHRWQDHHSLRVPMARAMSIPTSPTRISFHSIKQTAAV


Target: CRF1R
Assay: cell-based or functional assay

Row | Binder | CRF1R EC50 [nM] | CRF1R Emax [%]
1 | IVLSLDVPIGLLQILLEQARAAAREQATTNARILARV-NH2 [SEQ ID NO 141] | > 100 | 7
2 | IVLSLDVPIGLLQILLEQERQEAAREQATTNARILARV-NH2 [SEQ ID NO 118] | > 100 | 5
3 | IVLSLDVPIGLLQILLEQARQEAAREQATTNARILARV-NH2 [SEQ ID NO 123] | > 1000 | 9.6
4 | IVLSLDVPIGLLQILLEQTKANAAREQATTVARILARV-NH2 [SEQ ID NO 116] | 100 | 4.8
5 | IVLSLDVPIGLLQILLEQERAEAAREQATTNARILARV-NH2 [SEQ ID NO 113] | > 100 | 4
6 | IVLSLDVPIGLLQILLEQEKEKKRKETNARILARV-NH2 [SEQ ID NO 132] | > 100 | 8
7 | IVLSLDVPIGLLQILLEQEKQEAAREQATTNARILARV-NH2 [SEQ ID NO 125] | > 100 | 9
8 | IVLSLEVPIGLLQILLEQARARAAREQATTNARILARV-NH2 [SEQ ID NO 120] | 100 | 7
9 | IVLSLDVPIGLLQILLEQAARAAREQATTNARILARV-NH2 [SEQ ID NO 135] | > 100 | 6
10 | IVLSLDVPIGLLQILLEQAKAEAAREQATTNARILARV-NH2 [SEQ ID NO 112] | > 100 | 10
11 | IVLSLDVPIGLLQILLEQTKARAAREQATTNARILARV-NH2 [SEQ ID NO 117] | 100 | –
12 | ZGPPISIDLPFQLLRKMIEIEKQEKEKQQATNNRLLLATV (C-terminal amide) [SEQ ID NO 12] | 928 | 73
13 | ZGPPISIDLPFQLLRKMIEIEKQEKEKQQATTNRLLLDTI (C-terminal amide) [SEQ ID NO 13] | 97.7 | 69
14 | ZGPPISIDLPFQLLRKMIEIEKQEKEKQQATNNRLLLDTI (C-terminal amide) [SEQ ID NO 14] | 109 | 92
15 | ZGPPISIDLSLELLRKMIEIEKQEKEKQQATTNARILARV (C-terminal amide) [SEQ ID NO 142] | 43.5 | 85.3
16 | ZGPPISIDLPLHLLRKMIEIEKQEKEKQQATTNARILARV (C-terminal amide) [SEQ ID NO 145] | 196 | 91.3
17 | ZGPPISIDLPLELLRKMIEIEKQEKEKQQATTNARILARV (C-terminal amide) [SEQ ID NO 143] | 232 | 100
18 | ZGPPISIDLPLQLLRKMIEIEKQEKEKQQATTNARILARV (C-terminal amide) [SEQ ID NO 144] | 567 | 100
19 | IVLSLDVPIGLLQILLEQAKARAAREQATTNARILARV-NH2 [SEQ ID NO 127] | > 100 | –

Row | Binder | CRF1R EC50 [nM] | CRF1R Emax [%]
20 | IVLSLDVPIGLLQILLEQAAAREQATTNARILARV-NH2 [SEQ ID NO 139] | > 100 | 4
21 | IVLSLDVPIGLLQILLEQAKARAAREQATTNARILARV-NH2 [SEQ ID NO 109] | 100 | –
22 | IVLSLDVPIGLLQILLEQAKQRAAREQATTNARILARV-NH2 [SEQ ID NO 110] | > 100 | 9
23 | IVLSLDVPIGLLQILLEQRARAAREQATTNARILARV-NH2 [SEQ ID NO 137] | > 100 | 4
24 | IVLSLDVPIGLLQILLEQAKADAAREQATTNARILARV-NH2 [SEQ ID NO 131] | > 100 | 8
25 | IVLSLDVPIGLLQILLEQTKARAAREQATTNARILARV-NH2 [SEQ ID NO 129] | > 100 | –
26 | IVLSLDVPIGLLQILLEQTRADAAREQATTNARILARV-NH2 [SEQ ID NO 126] | > 100 | 7
27 | IVLSLDVPIGLLQILLEQEKQRAAREQATTNARILARV-NH2 [SEQ ID NO 115] | > 100 | 7
28 | IVLSLDVPIGLLQILLEQERQRAAREQATTNARILARV-NH2 [SEQ ID NO 111] | > 100 | 9
29 | IVLSLDVPIGLLQILLEQAKQEAAREQATTNARILARV-NH2 [SEQ ID NO 124] | > 100 | 6
30 | IVLSLDVPIGLLQILLEQARAEAAREQATTNARILARV-NH2 [SEQ ID NO 122] | 1000 | 10.7
31 | IVLSLDVPIGLLQILLEQERARAAREQATTNARILARV-NH2 [SEQ ID NO 119] | > 100 | 3
32 | IVLSLDVPIGLLQILLEQARQRAAREQATTNARILARV-NH2 [SEQ ID NO 114] | > 100 | 6
33 | IVLSLDVPIGLLQILLEQRRAAREQATTNARILARV-NH2 [SEQ ID NO 133] | > 100 | 4
34 | IVLSLDVPIGLLQILLEQAAAAREQATTNARILARV-NH2 [SEQ ID NO 134] | > 100 | 7
35 | IVLSLDVPIGLLQILLEQRAAREQATTNARILARV-NH2 [SEQ ID NO 136] | > 100 | 8
36 | IVLSLDVPIGLLQILLEQAAREQATTNARILARV-NH2 [SEQ ID NO 138] | > 100 | 5
37 | IVLSLDVPIGLLQILLEQTRARAAREQATTNARILARV-NH2 [SEQ ID NO 128] | > 100 | 8
38 | IVLSLDVPIGLLQILLEQARADAAREQATTNARILARV-NH2 [SEQ ID NO 130] | > 100 | 9

Target: T1, CRF2R
Assay: cell-based or functional assay

Row | Binder | CRF2R EC50 [nM] | CRF2R Emax [%]
39 | IVLSLDVPIGLLQILLEQARAAAREQATTNARILARV-NH2 [SEQ ID NO 141] | > 100 | 29
40 | IVLSLDVPIGLLQILLEQERQEAAREQATTNARILARV-NH2 [SEQ ID NO 118] | 14.6 | 100
41 | IVLSLDVPIGLLQILLEQARQEAAREQATTNARILARV-NH2 [SEQ ID NO 123] | 3.49 | 93.8
42 | IVLSLDVPIGLLQILLEQTKANAAREQATTVARILARV-NH2 [SEQ ID NO 116] | 100 | 26.4
43 | IVLSLDVPIGLLQILLEQERAEAAREQATTNARILARV-NH2 [SEQ ID NO 113] | 11.3 | 98
44 | IVLSLDVPIGLLQILLEQEKEKKRKETNARILARV-NH2 [SEQ ID NO 132] | 7.53 | 88
45 | IVLSLDVPIGLLQILLEQEKQEAAREQATTNARILARV-NH2 [SEQ ID NO 125] | 4.47 | 99
46 | IVLSLEVPIGLLQILLEQARARAAREQATTNARILARV-NH2 [SEQ ID NO 120] | 69.9 | 100
47 | IVLSLDVPIGLLQILLEQAARAAREQATTNARILARV-NH2 [SEQ ID NO 135] | > 100 | 76
48 | IVLSLDVPIGLLQILLEQAKAEAAREQATTNARILARV-NH2 [SEQ ID NO 112] | 12.3 | 100
49 | IVLSLDVPIGLLQILLEQTKARAAREQATTNARILARV-NH2 [SEQ ID NO 117] | 9.41 | –
50 | ZGPPISIDLPFQLLRKMIEIEKQEKEKQQATNNRLLLATV (C-terminal amide) [SEQ ID NO 12] | 9.72 | 91
51 | ZGPPISIDLPFQLLRKMIEIEKQEKEKQQATTNRLLLDTI (C-terminal amide) [SEQ ID NO 13] | 3.88 | 79
52 | ZGPPISIDLPFQLLRKMIEIEKQEKEKQQATNNRLLLDTI (C-terminal amide) [SEQ ID NO 14] | 6.33 | 90
53 | ZGPPISIDLSLELLRKMIEIEKQEKEKQQATTNARILARV (C-terminal amide) [SEQ ID NO 142] | 9.08 | 77
54 | ZGPPISIDLPLHLLRKMIEIEKQEKEKQQATTNARILARV (C-terminal amide) [SEQ ID NO 145] | 7.8 | 69
55 | ZGPPISIDLPLELLRKMIEIEKQEKEKQQATTNARILARV (C-terminal amide) [SEQ ID NO 143] | 11.1 | 85.5
56 | ZGPPISIDLPLQLLRKMIEIEKQEKEKQQATTNARILARV (C-terminal amide) [SEQ ID NO 144] | 9.16 | 85.5
57 | IVLSLDVPIGLLQILLEQAKARAAREQATTNARILARV-NH2 [SEQ ID NO 127] | 7.79 | –

Row | Binder | CRF2R EC50 [nM] | CRF2R Emax [%]
58 | IVLSLDVPIGLLQILLEQAAAREQATTNARILARV-NH2 [SEQ ID NO 139] | 42.6 | 60
59 | IVLSLDVPIGLLQILLEQAKARAAREQATTNARILARV-NH2 [SEQ ID NO 109] | 11.8 | –
60 | IVLSLDVPIGLLQILLEQAKQRAAREQATTNARILARV-NH2 [SEQ ID NO 110] | 11 | 100
61 | IVLSLDVPIGLLQILLEQRARAAREQATTNARILARV-NH2 [SEQ ID NO 137] | 36.9 | 100
62 | IVLSLDVPIGLLQILLEQAKADAAREQATTNARILARV-NH2 [SEQ ID NO 131] | 5.25 | 91
63 | IVLSLDVPIGLLQILLEQTKARAAREQATTNARILARV-NH2 [SEQ ID NO 129] | 3.83 | –
64 | IVLSLDVPIGLLQILLEQTRADAAREQATTNARILARV-NH2 [SEQ ID NO 126] | 13 | 91
65 | IVLSLDVPIGLLQILLEQEKQRAAREQATTNARILARV-NH2 [SEQ ID NO 115] | 13.6 | 98
66 | IVLSLDVPIGLLQILLEQERQRAAREQATTNARILARV-NH2 [SEQ ID NO 111] | 10.9 | 99
67 | IVLSLDVPIGLLQILLEQAKQEAAREQATTNARILARV-NH2 [SEQ ID NO 124] | 3.49 | 94
68 | IVLSLDVPIGLLQILLEQARAEAAREQATTNARILARV-NH2 [SEQ ID NO 122] | 3.31 | 97
69 | IVLSLDVPIGLLQILLEQERARAAREQATTNARILARV-NH2 [SEQ ID NO 119] | 3.57 | 95
70 | IVLSLDVPIGLLQILLEQARQRAAREQATTNARILARV-NH2 [SEQ ID NO 114] | 3.42 | 100
71 | IVLSLDVPIGLLQILLEQRRAAREQATTNARILARV-NH2 [SEQ ID NO 133] | 12.2 | 88
72 | IVLSLDVPIGLLQILLEQAAAAREQATTNARILARV-NH2 [SEQ ID NO 134] | > 100 | 19
73 | IVLSLDVPIGLLQILLEQRAAREQATTNARILARV-NH2 [SEQ ID NO 136] | 23.4 | 68
74 | IVLSLDVPIGLLQILLEQAAREQATTNARILARV-NH2 [SEQ ID NO 138] | 59 | 46
75 | IVLSLDVPIGLLQILLEQTRARAAREQATTNARILARV-NH2 [SEQ ID NO 128] | 2.85 | 98
76 | IVLSLDVPIGLLQILLEQARADAAREQATTNARILARV-NH2 [SEQ ID NO 130] | 8.57 | 92
